Experimental data taken from paper PMC10200060, “Inhibition of DAMP actions in the tumoral microenvironment using lactoferrin-glycyrrhizin conjugate for glioblastoma therapy” (Biomaterials Research, 2023).

T1: human recombinant HMGB1 protein (Homo sapiens, UniProt P09429)
T1 construct: purchased Abcam
T1 sequence (P09429 1-215): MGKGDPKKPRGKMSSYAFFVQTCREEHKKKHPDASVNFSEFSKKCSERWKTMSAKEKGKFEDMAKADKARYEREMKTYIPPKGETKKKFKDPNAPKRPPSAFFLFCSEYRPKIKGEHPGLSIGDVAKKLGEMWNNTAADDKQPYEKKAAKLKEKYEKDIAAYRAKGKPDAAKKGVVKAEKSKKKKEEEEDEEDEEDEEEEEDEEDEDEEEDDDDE


Legend:
[1] = molecular target: T1, human recombinant HMGB1 protein; experiment: SPR binding affinity against HMGB1; settings: SPR, HMGB1 immobilized; for Ka, association rate constant / Kd, dissociation rate constant: PBS pH 7.4, room temperature
Experimental: To confirm the binding affinity of Lf-GL to HMGB1, Surface Plasmon Resonance (SPR) was conducted at WoojungBSC (Korea). The Reichert SR7500DC system (Reichert technologies, NA, USA) and Scrubber2 software (Biologic software, FRA) were used, and a CMDH chip (Cat #: 13,206,066, Reichert technologies) was used for immobilization of the human recombinant HMGB1 protein (Abcam). HMGB1 protein was used as a ligand, and the analytes were HMGB1 antibody (Abcam), GL, Lf and Lf-GL conjugate. The immobilization buffer was S.A. (10 × 10^–3 M, pH 4.5), and the running buffer was PBS (pH 7.4). The flow rate of the analyte was 30 μL min^−1. The association and dissociation time were 3 min each, and measurements were conducted at room temperature. Results are expressed in response units (RU) over time.
Fig. S5. Binding affinity against HMGB1. Surface Plasmon Resonance (SPR) was conducted at WoojungBSC (Korea). The Reichert SR7500DC system (Reichert technologies, NA, USA) and Scrubber2 software(Biologic software, FRA) were used and the CMDH chip (Cat #: 13206066, Reichert technologies) was used for immobilization of the human recombinant HMGB1 protein (Abcam). HMGB1 protein was used as ligand and analytes were HMGB1 antibody (Abcam), GL, Lf and Lf-GL conjugate. Immobilization buffer was 10 mM S.A. (pH 4.5) and running buffer was 1× PBS. The flow rate of the analyte was 30 μL min^-1. The association and dissociation time were 3 min each and conducted at room temperature. Results are expressed in response units (RU) over time.

U87MG spheroid = experiment: GBM spheroid growth inhibition; type: cell-based, human; settings: GL equivalent 50 µM, day 6 (control 294%)
Experimental: Fig. S8. GBM spheroid growth inhibition of Lf-GL. To form U87MG spheroid, cells were seeded at density of 1X10^5 cells in concave mold (StemFIT 3D; MICROFIT, Korea). After spheroids were formed, they were transferred to 24-well plate coated with 2% agarose gel. The constructed spheroids were treated with conditioned medium at 2 days interval after a washing step with PBS. (a) Morphology of U87MG spheroid treated with Lf-GL of GL equivalent concentration of 50 µM on day 0, 2, 4 and 6, respectively. Scale bar: 200 µm (b) GBM spheroids time-related volume after treated with Lf-GL of GL equivalent concentration of 50 µM. Data were expressed as mean ± S.E.M (n=9). **P <0.01 versus Control.

KD, equilibrium dissociation constant (KD = Kd Ka^−1) [1] [nM]	Ka, association rate constant [1]	Kd, dissociation rate constant [1]	Molecule	Spheroid volume increase at day 6 compared to day 0 (U87MG spheroid) [%]
595 ± 5	(2.66±0.02)·10^3 M^-1s^-1	0.001584 ± 8e-06 s⁻¹	Lf-GL (1:4): lactoferrin-glycyrrhizin conjugate, ratio 1:4 (conjugate, UniProt P24627 20-708, looked up, glycyrrhizin conjugate 1:4) Lactotransferrin: APRKNVRWCTISQPEWFKCRRWQWRMKKLGAPSITCVRRAFALECIRAIAEKKADAVTLDGGMVFEAGRDPYKLRPVAAEIYGTKESPQTHYYAVAVVKKGSNFQLDQLQGRKSCHTGLGRSAGWIIPMGILRPYLSWTESLEPLQGAVAKFFSASCVPCIDRQAYPNLCQLCKGEGENQCACSSREPYFGYSGAFKCLQDGAGDVAFVKETTVFENLPEKADRDQYELLCLNNSRAPVDAFKECHLAQVPSHAVVARSVDGKEDLIWKLLSKAQEKFGKNKSRSFQLFGSPPGQRDLLFKDSALGFLRIPSKVDSALYLGSRYLTTLKNLRETAEEVKARYTRVVWCAVGPEEQKKCQQWSQQSGQNVTCATASTTDDCIVLVLKGEADALNLDGGYIYTAGKCGLVPVLAENRKSSKHSSLDCVLRPTEGYLAVAVVKKANEGLTWNSLKDKKSCHTAVDRTAGWNIPMGLIVNQTGSCAFDEFFSQSCAPGADPKSRLCALCAGDDQGLDKCVPNSKEKYYGYTGAFRCLAEDVGDVAFVKNDTVWENTNGESTADWAKNLNREDFRLLCLDGTRKPVTEAQSCHLAVAPNHAVVSRSDRAAHVKQVLLHQQALFGKNGKNCPDKFCLFKSETKNLLFNDNTECLAKLGGRPTYEEYLGTEYVTAIANLKKCSTSPLLEACAFLTR	185
32.3 ± 0.2	(2.99±0.02)·10^4 M^-1s^-1	(9.65±0.04)·10^-4 M^-1s^-1	Lf-GL (1:15): lactoferrin-glycyrrhizin conjugate, ratio 1:15 (conjugate, UniProt P24627 20-708, looked up, glycyrrhizin conjugate 1:15) Lactotransferrin: APRKNVRWCTISQPEWFKCRRWQWRMKKLGAPSITCVRRAFALECIRAIAEKKADAVTLDGGMVFEAGRDPYKLRPVAAEIYGTKESPQTHYYAVAVVKKGSNFQLDQLQGRKSCHTGLGRSAGWIIPMGILRPYLSWTESLEPLQGAVAKFFSASCVPCIDRQAYPNLCQLCKGEGENQCACSSREPYFGYSGAFKCLQDGAGDVAFVKETTVFENLPEKADRDQYELLCLNNSRAPVDAFKECHLAQVPSHAVVARSVDGKEDLIWKLLSKAQEKFGKNKSRSFQLFGSPPGQRDLLFKDSALGFLRIPSKVDSALYLGSRYLTTLKNLRETAEEVKARYTRVVWCAVGPEEQKKCQQWSQQSGQNVTCATASTTDDCIVLVLKGEADALNLDGGYIYTAGKCGLVPVLAENRKSSKHSSLDCVLRPTEGYLAVAVVKKANEGLTWNSLKDKKSCHTAVDRTAGWNIPMGLIVNQTGSCAFDEFFSQSCAPGADPKSRLCALCAGDDQGLDKCVPNSKEKYYGYTGAFRCLAEDVGDVAFVKNDTVWENTNGESTADWAKNLNREDFRLLCLDGTRKPVTEAQSCHLAVAPNHAVVSRSDRAAHVKQVLLHQQALFGKNGKNCPDKFCLFKSETKNLLFNDNTECLAKLGGRPTYEEYLGTEYVTAIANLKKCSTSPLLEACAFLTR	179
